# Test results published in paper doi:10.1101/2024.03.07.581839 (bioRxiv, 2024).
# B1: human GPR156 (receptor)
# chain: MEPEINCSELCDSFPGQELDRRPLHDLCKTTITSSHHSSKTISSLSPVLLGIVWTFLSCGLLLILFFLAFTIHCRKNRIVKMSSPNLNIVTLLGSCLTYSSAYLFGIQDVLVGSSMETLIQTRLSMLCIGTSLVFGPILGKSWRLYKVFTQRVPDKRVIIKDLQLLGLVAALLMADVILLMTWVLTDPIQCLQILSVSMTVTGKDVSCTSTSTHFCASRYSDVWIALIWGCKGLLLLYGAYLAGLTGHVSSPPVNQSLTIMVGVNLLVLAAGLLFVVTRYLHSWPNLVFGLTSGGIFVCTTTINCFIFIPQLKQWKAFEEENQTIRRMAKYFSTPNKSFHTQYGEEENCHPRGEKSSMERLLTEKNAVIESLQEQVNNAKEKIVRLMSAECTYDLPEGAAPPASSPNKDVQAVASVHTLAAAQGPSGHLSDFQNDPGMAARDSQCTSGPSSYAQSLEGPGKDSSFSPGKEEKISDSKDFSDHLDSGCSQKPWTEQSLGPERGDQVPMNPSQSLLPERGGSDPQRQRHLENSEEPPERRSRVSSVIREKLQEVLQDLGLGPEASLSTAPSCHQQTWKNSAAFSPQKMPLSKELGFSPYMVRRRRAAQRARSHFPGSAPSSVGHRANRTVPGAHSRLHVQNGDSPSLAPQTTDSRVRRPSSRKPSLPSDPQDRPGTLEGSKQSQTEPEGARGSKAAFLRQPSGSGRAPSPAAPCLSKASPDLPEQWQLWPPVPSGCASLSSQHSYFDTESSSSDEFFCRCHRPYCEICFQSSSDSSDSGTSDTDPEPTGGLASWEKLWARSKPIVNFKDDLKPTLV
# Target: the molecule itself
# Assay: cryo-EM structure
protein,measurement,value
B1,stoichiometry N,2
